Test results: patent publication EP4768503A1 (Keymed Biosciences (Chengdu) Co., Ltd., dated 2026)
Where no end group is shown, it is not given here. [ ]: non-standard residue; d: D form. pGlu = O=C1CC[C@@H](C(=O)O)N1

Key:
Aβ1-42 monomer = molecular target: T1, Aβ1-42 monomer (human); experiment: graded binding, chimeric antibody (assay not named; ELISA in Example 1)
T1 construct: Preparation of the monomer is not described

pyroE Aβ3-42 peptide = molecular target: T2, pyroE Aβ3-42 peptide (human, pyroglutamate derived from glutamic acid at the third amino acid position of Aβ (N-terminus of the peptide)); experiment: as above
T2 construct: Synthetic peptide; It lacks the first two N-terminal residues of Aβ; also called pyroglutamate-modified β-amyloid

Aβ1-42 protofibril [1] = molecular target: T3, Aβ1-42 protofibril (human); experiment: SPR (Biacore T200), protofibril on CM5 chip, antibody as analyte
T3 construct: also called amyloid protofibril

Aβ1-42 protofibril [2] = molecular target: T3, Aβ1-42 protofibril; experiment: graded binding, chimeric antibody (assay not named; ELISA in Example 1)
[3] = molecular target: T4, pyroE Aβ3-16-biotin polypeptide (human, also: biotin, position not given here); experiment: SPR (Biacore T200), biotinylated peptide on SA chip, antibody as analyte; antigen channel not given
T4 peptide: [pGlu]FRHDSGYEVHHQK

T3 sequence (peptide, as listed by the source): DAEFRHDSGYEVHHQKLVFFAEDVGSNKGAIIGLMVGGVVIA
T2 sequence (peptide, as listed by the source): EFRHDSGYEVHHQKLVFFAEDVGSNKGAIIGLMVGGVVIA

B1: 6B5 (antibody, V domains shown)
VH: EVQLQQSGAELVKPGASVKLSCKASGYTFTTYWMHWVKQRPGQGLEWIGEIDPSDSYTNYNQKFKGKATLTVDKSSSTAYMQLSSLTSEDSAVYYCARSFHGNFFVYWGQGTLVTVSA
VL: QIVLTQSPAIMSASPGEKVTITCSASSSVSYMHWFQQKPGTSPKLWIYSTSNLASGVPARFSGSGSGTSYSLTISRMEAEDAATYYCQQRSSYPLTFGAGTKLELK
notes: Chimeric (parent) antibody; the constant region of the chimeric form is not specified
binding result (Aβ1-42 monomer): binds | binding result (pyroE Aβ3-42 peptide): binds | Kd (Aβ1-42 protofibril [1]): 1.71 nM | koff (Aβ1-42 protofibril [1]): 0.00196 s⁻¹ | kon (Aβ1-42 protofibril [1]): 1.15e+06 M⁻¹ s⁻¹

B2: 11G10 (antibody, V domains shown)
VH: EVQLQQSGAEIVKPGASVKLSCKASGYTFTSYWMHWVKQRPGQGLEWIGEIDPSDSYTNYNQKFKGKATLTVDKSSSTAYMQLRSLTSEDSAVYYCARSFHGNLFVYWGQGTLVTVSA
VL: QIVLTQSPAIMSASPGEKVTITCSASSSVSYMHWFQQKPGTSPKLWIYSTSNLATGVPARFSGSGSGTSYSLTISRMEAEDAATYYCQQRSSYPLTFGAGTKLEIK
notes: Chimeric antibody; the constant region of the chimeric form is not specified
binding result (Aβ1-42 monomer): binds | binding result (Aβ1-42 protofibril [2]): binds | binding result (pyroE Aβ3-42 peptide): binds

B3: 6C9 (antibody, V domains shown)
VH: QVQLQQSGAELVKPGASVKLSCKASGYTFTNYYVHWVKQRPGQGLEWIGEIDPSDSYSNYNQKFKGKATLTVDKSSSTAYMQLSSLTSEDSAVYYCARSFHGNFFVYWGQGTLVTVSA
VL: QIVLTQSPAIMSASLGEEITLTCSASSSVSYMHWFQQKPGTSPKLWIYSTSNLASGVPARFSGSGSGTSYSLTISRMEAEDAATYYCQQRSSYPPTFGGGTKLEIK
notes: as for B2
binding result (Aβ1-42 monomer): binds | binding result (Aβ1-42 protofibril [2]): binds | binding result (pyroE Aβ3-42 peptide): binds

B4: 151N5 (antibody, V domains shown)
VH: EVQLVESGGGLVKPGGSLKLSCAASGFTFSDFYMYWVRQTPEKRLEWVATISDGGRYTYYPDRLKGRFTISRNIAKNNLYLQMSSLKSEDTAMYYCARGRSTMITTTRNYFALDYWGQGTSVTVSS
VL: DIQMTQSSSSFSVSLGDRVTITCKASEDIYNRLAWYQQKPGDAPRLLISGAIRLETGVPSRFSGSGSGKDYTLSITSLQTEDGATYYCQQYWRTPLTFGAGIKLELK
notes: as for B1
binding result (pyroE Aβ3-42 peptide): binds | Kd [3]: 0.291 nM | koff [3]: 0.000319 s⁻¹ | kon [3]: 1.1e+06 M⁻¹ s⁻¹
